Reference: publication PMC6884320

Test system: Glu92
Assay: kinetics

Substance: AlleyCat2 (second-round evolved AlleyCat) (M144R; other substitutions not stated (includes the AlleyCat mutation that gives Glu92))
- pKa (not stated (Figure S14 not available), Ca2+-bound, turning over leflunomide): 7.06 ± 0.02
- pKa (turning over the Kemp elimination substrate, cited from earlier work): 6.73 ± 0.03
